Entries after “also recorded” stand apart in the source; their conditions may differ. Like-named read-outs stand apart in the source and are kept apart here.
How the values were obtained:
HvPPA = biological target: T1, HvPPA (Haloferax volcanii, UniProt D4GT97); experiment: Sodium fluoride-based inhibition of HvPPA; format: biochemical
T1 construct: thrombin-cleavage site (linker between His6 and HvPPA) (N); made in house; host or cells: Haloferax volcanii H26-pJAM2920
T1 sequence (D4GT97 1-177): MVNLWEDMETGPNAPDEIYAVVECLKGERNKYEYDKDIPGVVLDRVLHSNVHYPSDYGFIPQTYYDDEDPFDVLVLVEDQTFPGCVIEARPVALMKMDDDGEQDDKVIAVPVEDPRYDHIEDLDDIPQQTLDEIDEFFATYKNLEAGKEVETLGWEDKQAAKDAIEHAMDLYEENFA
Description: A) HvPPA (1.3 μg) was assayed in 1 ml reaction volume containing 1 mM PPi, 10 mM MgCl2, 3 M NaCl and 20 mM Tris-Cl buffer pH 7.5 supplemented with NaF as indicated. Reactions were monitored for 15 min at RT.
HvPPA-mediated hydrolysis of PPi to Pi was determined spectrophotometrically. Reagents were in nanopure water (Barnstead/Thermolyne Nanopure lab water system). Sodium pyrophosphate tetrabasic decahydrate (Sigma Aldrich) was used as a substrate. For kinetic measurements, reaction mixtures (500 μl total) contained 0.5-1 μg HvPPA and 1 mM PPi in high-salt buffer (3 M NaCl and 20 mM Tris-HCl, pH 8.5). Reactions were incubated at 42° C. for 1-3 min. Orthophosphate levels were determined by malachite green assay. Briefly, 2.5 ml of 14% (w/v) (NH4)2MoO4 and 0.2 ml of 11% (v/v) TWEEN 20 ® (Polyoxyethylene sorbitan monolaurate) were added into a 10-ml color reagent I (containing 1.67 ml conc. sulfuric acid, 8.33 ml nanopure H2O, and 12.22 mg malachite green). In triplicate, 50 μl of the color reagent was mixed with 200 μl of the reaction mixture and incubated at room temperature for 10 min. The formation of (MG^+)(H2PMo12O40) (where MG^+ represents ionized malachite green) was monitored at A630. A less sensitive malachite green assay was also used in which reaction aliquots (50 μl) were mixed with 250 μl color reagent II and 10 μl 1.5% (v/v) TWEEN 20 ® (Polyoxyethylene sorbitan monolaurate) in triplicate; product formation was immediately monitored at A650. Color reagent II was generated by mixing 1 volume of 4.2% (w/v) (NH4)2MoO4 in 5 N HCl with 3 volumes of 0.2% (w/v) malachite green; after 30 minutes, the solution was filtered with a 0.45 μm filter and stored at room temperature. Freeze-dried KH2PO4 was used as the standard. Assay mixtures with PPi minus HvPPA were used for individual background subtraction. All proteins used in this assay were buffer-exchanged with Tris-high-salt buffer in nanopure H2O prior to use. All experiments were performed in triplicate and the mean±standard deviation (S.D.) was calculated.

[1] = PPi assay: HvPPA-mediated hydrolysis of PPi to Pi (malachite green); format: biochemical, Haloferax volcanii; conditions: for Temp., optimum: 20 mM Tris-Cl pH 8, 3 M NaCl; for Cation-dependence: EDTA-treated enzyme, 20 mM Tris-Cl pH 8, 2 M NaCl
Description: FIGS. 4A-4D. Effect of pH, temperature, salt and divalent cations on Haloferax volcanii inorganic phyrophosphatase (HvPPA) activity. A-C) HvPPA was equilibrated for 10 min at the pH, temperature, and NaCl concentrations indicated prior to the addition of PPi substrate (100 μM). MgCl2 (10 mM) was included in the activity assays. For pH optimum, assays were supplemented with 3 M NaCl and included 20 mM buffers of sodium acetate at pH 4-5, MES at pH 6-6.5, Tris-Cl at pH 7-9 and CAPS at pH 10. For temperature optimum assays, reactions were in 20 mM Tris-Cl pH 8 supplemented with 3 M NaCl. For salt optimum, HvPPA was diluted from 20 mM Tris-Cl pH 8 containing 3 m NaCl into the same buffer with NaCl concentrations as indicated. D) To test the influence of cations, HvPPA was dialyzed sequentially against 500 ml of buffer (20 mM Tris-Cl pH 8, 2 M NaCl and 1 μM EDTA) (4 h at 4° C.) and the same buffer with EDTA omitted (4 h at 4° C.). Reactions for panel D contained HvPPA (0.93 μg), 20 mM Tris-Cl pH 8, 2 M NaCl and divalent metal at the concentration indicated. Metals used were: CaCl2.2H2O, ZnCl2, CoCl2.6H2O, MnCl2.4H2O, NiCl2.6H2O and MgCl2.6H2O. Reactions were monitored for 10 min at RT unless otherwise indicated.
(§1) FIGS. 6A-6D. Effect of salt, solvent and temperature on Haloferax volcanii inorganic phyrophosphatase (HvPPA). A) HvPPA thermostability. HvPPA was incubated at 42° C. and 65° C. as indicated with enzyme at 0.093 mg/ml of buffer (20 mM Tris-Cl pH 8, 2.5 mM MgCl2 and 3 M NaCl). HvPPA was diluted to 0.28 μg per 100 μl buffer (with MgCl2 increased to 10 mM) and assayed by addition of 1 mM PPi substrate (10 min, RT). Activity is % relative to samples incubated on ice. B) HvPPA stability in 50% (v/v) solvent. HvPPA was incubated for 2 h (on ice) at 0.47 mg/ml buffer (20 mM Tris-Cl pH 8 and 2 M NaCl) supplemented with solvent as indicated. HvPPA was diluted to 2.4 μg per 100 μl buffer (20 mM Tris-Cl pH 8, 2.5 mM MgCl2 and 2 M NaCl) and assayed by addition of 50 μM PPi substrate (10 min, RT). Activity is % relative to samples incubated with no solvent. C) HvPPA activity in 25% (v/v) solvent. Reactions were 500 μl with 2.8 μg HvPPA, 1.5 M NaCl, 1.5 mM PPi, 10 mM MgCl2. Reaction occurred at 10 minutes at RT. D) HvPPA stability in salt. HvPPA was incubated for 2 h (on ice) at 0.3 mg per ml of buffer (20 mM Tris-Cl pH 8) supplemented with NaCl at the concentrations indicated. HvPPA was diluted to 0.87 μg per 100 μl reaction buffer as in FIG. 6B. Activity is % relative to samples incubated in buffer supplemented with 3M NaCl.
PPA activity monitored in Tris-salt buffer at 37° C. and pH 8.5 with 0.1 mM PPi for 10 min. U, units defined as μmol product/min. SD, standard deviation of three experiments.
HvPPA-mediated hydrolysis of PPi to Pi was determined spectrophotometrically. Reagents were in nanopure water (Barnstead/Thermolyne Nanopure lab water system). Sodium pyrophosphate tetrabasic decahydrate (Sigma Aldrich) was used as a substrate. For kinetic measurements, reaction mixtures (500 μl total) contained 0.5-1 μg HvPPA and 1 mM PPi in high-salt buffer (3 M NaCl and 20 mM Tris-HCl, pH 8.5). Reactions were incubated at 42° C. for 1-3 min. Orthophosphate levels were determined by malachite green assay. Briefly, 2.5 ml of 14% (w/v) (NH4)2MoO4 and 0.2 ml of 11% (v/v) TWEEN 20 ® (Polyoxyethylene sorbitan monolaurate) were added into a 10-ml color reagent I (containing 1.67 ml conc. sulfuric acid, 8.33 ml nanopure H2O, and 12.22 mg malachite green). In triplicate, 50 μl of the color reagent was mixed with 200 μl of the reaction mixture and incubated at room temperature for 10 min. The formation of (MG^+)(H2PMo12O40) (where MG^+ represents ionized malachite green) was monitored at A630. A less sensitive malachite green assay was also used in which reaction aliquots (50 μl) were mixed with 250 μl color reagent II and 10 μl 1.5% (v/v) TWEEN 20 ® (Polyoxyethylene sorbitan monolaurate) in triplicate; product formation was immediately monitored at A650. […]

[2] = Coupled assay of ubiquitin-like protein adenylation; format: biochemical, Haloferax volcanii; conditions: UbaA and HvPPA with ATP and SAMP1, 2 M NaCl, 42° C.
Description: FIGS. 7A-7B. on Haloferax volcanii inorganic phyrophosphatase (HvPPA) activity solvent and coupled adenylation assay at high temperature and low water activity. A) Schematic of the coupled assay. Adenylation of the ubiquitin-like SAMP by the E1-like enzyme (UbaA) was monitored by HvPPA mediated hydrolysis of the PPi (P2O7^4−) by-product to 2 Pi (2 moles HPO4^2−) at 50° C. B) Generation of Pi correlated with the addition of ATP, UbaA, HvPPA and SAMP1 to the assay buffer. ΔGG, C-terminal diglycine residue deletion.
UbaA-mediated hydrolysis of ATP to AMP and PPi in the presence of the ubiquitin-like SAMP1 was monitored by coupled assay with HvPPA. Proteins were buffer-exchanged with HEPES-salt buffer in Nanopure H2O prior to use. Reaction mixtures (500 μl total) containing 20 μM UbaA, 20 μM SAMP1, 0.5 μM HvPPA, 2.5 mM nucleotide, 2.5 mM MgCl2, 50 μM ZnCl2 in high-salt buffer (2 M NaCl and 50 mM HEPES in Nanopure H2O, pH 7.5) were incubated at 37-42° C. for 1 h. Nucleotides were ATP, AMP, ADP, AMP-PNP, CTP, GTP, TTP and UTP. Proteins were removed by Ultracel-3 centrifugal filtration prior to determining orthophosphate levels by malachite green assay modified as described above. Assay mixtures with nucleotide alone were used for individual background subtraction.

[3] = format: physicochemical, Haloferax volcanii
Description: as §1

[4] = PPi assay: HvPPA-mediated hydrolysis of PPi to Pi (malachite green); format: biochemical, Haloferax volcanii; conditions: 25° C.
[5] = cited from earlier work; for Vmax: highest reported

F [NaF, sodium fluoride]
Ki (HvPPA; pH 7.5): 200 µM
Ki (HvPPA; pH 8.5): 1800 µM

B1: HvPPA: Class A type inorganic pyrophosphatase from Haloferax volcanii, amino acid sequence of SEQ ID NO: 2 (protein, listed as Haloferax volcanii)
chain: MVNLWEDMETGPNAPDEIYAVVECLKGERNKYEYDKDIPGVVLDRVLHSNVHYPSDYGFIPQTYYDDEDPFDVLVLVEDQTFPGCVIEARPVALMKMDDDGEQDDKVIAVPVEDPRYDHIEDLDDIPQQTLDEIDEFFATYKNLEAGKEVETLGWEDKQAAKDAIEHAMDLYEENFA
Substrate(s) hydrolyzed [1]: PPi
hydrolysis of nucleoside triphosphate (ATP, TTP, GTP or CTP) or nucleoside diphosphate (ADP) [1]: did not hydrolyze detectable levels
kcat [1]: 1050 s⁻¹
activity of restored EDTA-treated enzyme versus untreated control ([1]; 2.5 mM MgCl2): half the activity of the untreated control
Temp., optimum [1]: 42 °C
Temp., optimum ([1]; listed as HvPPA hexamers): 42 °C
effect of NaCl on relative activity ([1]; 0.025 to 3 M NaCl): little, if any, effect; also recorded: fully active
optimal activity, basic pH ([1]; 3 M NaCl, 10 mM MgCl2, 100 μM PPi, RT): 8-9 pH
activity in organic solvent compared to no solvent controls ([1]; 25% (v/v) DMSO or DMF): 63-94%
activity in organic solvent compared to no solvent controls ([1]; 25% (v/v) methanol or ethanol): 110-150%
pH, optimum ([1]; 25° C.): pH 8.5 (25° C.)
Vmax ([1]; 25° C., PPi substrate): 53 U/mg
Vmax ([1]; 42° C.): 465 U · mg^−1
Vmax ([1]; 42° C., PPi substrate): 465 U/mg
Cation-dependence [1]: partially restored by supplementation of the enzyme with Mn^2+ or Mg^2+ ions
Cation-dependence ([1]; listed as Haloferax volcanii): Mg^2+, Mn^2+
Mg^2+ concentration for optimal PPi hydrolyzing activity ([1]; Mg^2+ added to reaction buffer): 20 to 40 mM
Hill coefficient(s) (Mg^2+) ([1]; Mg^2+, 25° C.): 2.6 (Mg^2+, 25° C.)
Hill coefficient(s) (PPi) ([1]; PPi, 42° C.): 2.1 (PPi, 42° C.)
effect of removal of divalent cations ([1]; dialysis against the metal chelator EDTA): inactivated
Km ([1]; for Mg^2+, 25° C., listed as Haloferax volcanii, read-out: Km Mg^2+): 13400 µM
Km ([1]; for Mg^2+, 25° C., read-out: Km Mg^2+): 13000 µM
Km ([1]; for PPi, 25° C., read-out: Km PPi): 260 µM
Km ([1]; for PPi, 42° C., read-out: Km PPi): 550 µM
Pi detected in coupled adenylation assay [2]: Significant levels of Pi were detected
stability when stored in salt [3]: more stable
activity remained ([3]; after 2 h at 42° C., relative to samples on ice): 82%
Thermal inactivation (half-life) ([3]; buffer, pH 8): 2 h
Inhibitors (HvPPA): NaF
Vmax [4]: 53 U · mg^−1 (25° C.)
Hill coefficient(s) (Mg^2+) ([4]; Mg^2+): 2.62
Hill coefficient(s) (PPi) ([4]; PPi): 1.4 (PPi, 25° C.)

B2: Methanothermobacter thermautotrophicus: Class A type inorganic pyrophosphatase of Methanothermobacter thermautotrophicus (Methanobacterium thermoautotrophicum) (protein, UniProt O26363 1-176, looked up)
Inorganic pyrophosphatase: MNLWKDIEPGPSVPEVVYAVVEIPKGSRNKYEYHKDLQAFALDRVLYSAVFYPAEYGIIPRTLYDDGDPMDILVLMDEPTFPGCIIESRPIGLLRMIDGGDQDDKILAVPVADPHFADVKDISDIPEHNLKEIANFFETYKKLEGKKTETLGWEGAEKAFEAVNHSIELYRKKYME
pH, optimum ([5]; 60° C.): pH 7.7 (60° C.)
Hill coefficient(s) (Mg^2+) [5]: 2.0 (Mg^2+)
Hill coefficient(s) (PPi) ([5]; PPi): 3.3 (PPi),
Km ([5]; for Mg^2+, read-out: Km Mg^2+): 4900 µM
Km ([5]; for PPi, read-out: Km PPi): 160 µM
Vmax [5]: 570 U · mg^−1

B3: Pyrococcus horikoshii: Class A type inorganic pyrophosphatase of Pyrococcus horikoshii (protein, UniProt O59570 1-178, looked up)
Inorganic pyrophosphatase: MNPFHDLEPGPNVPEVVYALIEIPKGSRNKYELDKETGLLKLDRVLYTPFHYPVDYGIIPRTWYEDGDPFDIMVIMREPTYPLTIIEARPIGLFKMIDSGDKDYKVLAVPVEDPYFKDWKDISDVPKAFLDEIAHFFKRYKELEGKEIIVEGWEGAEAAKREILRAIEMYKEKFGKKE
Vmax ([5]; 60° C.): 930 U · mg^−1
Km ([5]; for Mg^2+, read-out: Km Mg^2+): 300 µM
Hill coefficient(s) ([5]; in words): Cooperative
Substrate(s) hydrolyzed: ADP ([5]; substrate ADP): (2.9%)]
Substrate(s) hydrolyzed: ATP ([5]; substrate ATP): ATP (5.9%); ADP
Substrate(s) hydrolyzed: P3 ([5]; substrate P3): 2.7%

B4: Thermoplasma acidophilum: Class A type inorganic pyrophosphatase of Thermoplasma acidophilum (protein, UniProt P37981 1-179, looked up)
Inorganic pyrophosphatase: MESFYHSVPVGPKPPEEVYVIVEIPRGSRVKYEIAKDFPGMLVDRVLYSSVVYPVDYGLIPRTLYYDGDPMDVMVLISQPTFPGAIMKVRPIGMMKMVDQGETDNKILAVFDKDPNVSYIKDLKDVNAHLLDEIANFFSTYKILEKKETKVLGWEGKEAALKEIEVSIKMYEEKYGKKN
Vmax ([5]; 56° C.): 1100 U · mg^−1
Hill coefficient(s) (Mg^2+) [5]: 1.8 (Mg^2+)
Km ([5]; for Mg^2+, read-out: Km Mg^2+): 1700 µM
Km ([5]; for PPi, read-out: Km PPi): 7 µM

Reference: US11466260B2, “Thermostable haloarchaeal inorganic pyrophosphatase” (UNIVERSITY OF FLORIDA RESEARCH FOUNDATION, INCORPORATED, priority 2015, dated 2022)
